{
  "source": "patent US20250320480A1",
  "about": "“Immunoglobulin Cleaving Enzyme” (priority 2021, published 2025)",
  "molecules": {"B1": {"name": "IdeSORK2.0: SEQ ID NO: 2 (N terminal 312 amino acids of IdeSORK) with added N terminal methionine and C-terminal His6; 319 amino acids (protein)", "chain": "MSKRKLLKKIEKKDTSSVLTQKKQTKTLWADGVQVDDKDFKPSTENFGTNYLAAEYGIGKGYYDINKKFDGTDDDLCSGVVAANQLHWWLDRNKDYIEKYRQQSKDNGVTIGNTDIFELNKLHDEDQSNFFDFIKKSFGNKFLQPERLLNMYINGYGYLTSQDKAKTSQPSPSKLNFFQKVFKNNLLTDKTPINDIDEFSSQTKNALQNHKVLAVSFASIKNRGLGHVVTVWGADFDENGKVVALYVTDSDDRSKNIGNAKLGMKKLRIEVSAQDSSTIKLTGFEDKNSGGSLRHLYSLSTGEQIWKKYFEETHHHHHH", "modifications": "(IdeSORK2.0) Protein of SEQ ID NO 2 engineered to include an additional N terminal methionine and a C-terminal protein purification tag - His6"}},
  "type_in_all_cases": "biochemical",
  "key": {"cow IgG": {"tested_on": "cow IgG", "assay": "Immunoglobulin specificity on SDS-PAGE: cow IgG", "experimental": "(§1) Various antibodies and antibody based therapeutics were incubated with Xork, IdeS, or IdeZ (1:40 ratio) for 1 hour at 37° C. in PBS, with substrate concentrations ranging between 2-5 mg/mL, before being analyzed on SDS-PAGE. For kinetic studies, a substrate level of 2-200 μM IVIG was used during 10 min at 37° C. before being analyzed on a UHPLC system."}, "[1]": {"tested_on": "denatured and reduced IgG", "assay": "Activity on denatured and reduced IgG", "details": "urea-denatured and reduced IgG, E:S 1:10, 5 hours at 37° C.", "experimental": "FIG. 17. Denatured IgG was incubated with IgG hydrolases to investigate the necessity of a conserved 3D structure of the substrate for the enzymes to exert their function.\nIgG that had been urea-denatured and reduced was incubated with IgG-specific enzymes at an E: S ratio of 1:10, incubating for 5 hours at 37° C. before analysis on SDS-PAGE."}, "[2]": {"tested_on": "human IgG1 hinge/CH2 region", "assay": "Site of hydrolysis by IdeSORK2.0, LC-MS", "details": "IgG1, IgG2, fusion proteins, LALA-mutated IgG", "experimental": "FIG. 5. IdeSork2.0 hydrolyses the hinge of IgG at an identical site as IdeS. Commercial and non-commercial biologics were hydrolyzed with IdeSork2.0 and hydrolysis products were analyzed using LC-MS.\nSeveral substrates (IgG1, IgG2, fusion proteins, LALA-mutated IgG) were subjected to hydrolysis by IdeSORK2.0 and the site of hydrolysis identified through LC-MS. […] This is the same site that is recognized by IdeS. The site of hydrolysis has been confirmed for etanercept, trastuzumab, cetuximab, as well as two non-commercial monoclonal antibodies.\nSubunit fragments were denatured and reduced followed by reversed phase LC-MS analysis. Separation was achieved using a BioResolve RP mAb Polyphenol, 450 Å, 2.7 μm 2.1×100 mm, Waters (0.1% formic acid in water and 0.1% formic acid in 95% acetonitrile as mobile phases) and run on an Agilent 1260/1290 UHPLC system coupled to a Bruker Impact II QTOF mass spectrometer. The obtained data was evaluated in Bruker Compass DataAnalysis software using the MaxEnt algorithm for deconvolution and SNAP algorithm for determination of the monoisotopic molecular weights."}, "IgG in human serum": {"tested_on": "IgG in human serum", "assay": "Activity of IgG hydrolases in human serum", "details": "serum (100%), E:S 1:40, 0-4 hours at 37° C., non-reduced SDS-PAGE", "experimental": "FIG. 15. Activity of IgG hydrolases in human serum. Serum (100%) was spiked with IgG hydrolases and activity was analyzed over time using non-reduced SDS-PAGE.\nFor serum activity assays, an E: S ratio of 1:40 (assuming 10 mg/mL IgG in serum) was used, incubating 0-4 hours at 37° C. before analysis on a non-reduced SDS-PAGE. All enzymes were supplied by Genovis AB."}, "IgG1": {"tested_on": "IgG1", "assay": "Comparison to other IgG proteases: IgG1", "details": "SDS-PAGE", "experimental": "FIG. 10. IdeSork2.0 is having a similar activity compared to IdeS and IdeZ. To investigate if IdeSork2.0 is hydrolyzing IgG in a similar way as IdeS and IdeZ they were all incubated against IgG1 and IgG2 and analyzed on SDS-PAGE. The cleavage patterns look identical, with both IdeSork2.0 and IdeS having less activity towards IgG2.\nTo further look into the activity of IdeSORK2.0, its activity was compared with IdeS and IdeZ against both IgG1 and IgG2."}, "horse IgG": {"tested_on": "horse IgG", "assay": "Immunoglobulin specificity on SDS-PAGE: horse IgG", "details": "o/n at 37° C.", "experimental": "FIG. 11. Specificity of IdeSork2.0. IdeSork2.0 was mixed with different antibodies and incubated o/n at 37° C. before analysis on SDS-PAGE.\nas §1"}, "mouse IgG2b": {"molecular_target": "mouse IgG2b (Mus musculus, UniProt P01867)", "sequence (P01867 1-335 isoform P01867-2)": "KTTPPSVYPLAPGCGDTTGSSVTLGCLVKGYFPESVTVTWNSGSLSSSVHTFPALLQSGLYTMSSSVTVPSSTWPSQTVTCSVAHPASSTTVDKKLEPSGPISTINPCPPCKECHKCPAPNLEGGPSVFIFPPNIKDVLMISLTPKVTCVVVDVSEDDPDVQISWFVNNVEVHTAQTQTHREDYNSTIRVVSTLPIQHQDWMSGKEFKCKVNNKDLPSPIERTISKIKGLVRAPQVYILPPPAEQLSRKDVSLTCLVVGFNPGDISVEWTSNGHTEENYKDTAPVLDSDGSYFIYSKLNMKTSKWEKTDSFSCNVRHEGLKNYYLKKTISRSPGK", "assay": "Immunoglobulin specificity on SDS-PAGE: mouse IgG2b", "details": "37° C., listed as IdeSork2.0", "experimental": "(§2) FIG. 3. Specificity of IdeSork2.0. IdeSork2.0 was mixed with different antibodies and incubated o/n at 37° C. before analysis on SDS-PAGE. The enzyme itself is noted with an arrow. […] Mouse IgG1, mouse IgG2b and human IgA were not affected by IdeSork2.0.\nas §1"}, "mouse IgG2a": {"molecular_target": "mouse IgG2a (Mus musculus, UniProt P01863)", "sequence (P01863 whole entry)": "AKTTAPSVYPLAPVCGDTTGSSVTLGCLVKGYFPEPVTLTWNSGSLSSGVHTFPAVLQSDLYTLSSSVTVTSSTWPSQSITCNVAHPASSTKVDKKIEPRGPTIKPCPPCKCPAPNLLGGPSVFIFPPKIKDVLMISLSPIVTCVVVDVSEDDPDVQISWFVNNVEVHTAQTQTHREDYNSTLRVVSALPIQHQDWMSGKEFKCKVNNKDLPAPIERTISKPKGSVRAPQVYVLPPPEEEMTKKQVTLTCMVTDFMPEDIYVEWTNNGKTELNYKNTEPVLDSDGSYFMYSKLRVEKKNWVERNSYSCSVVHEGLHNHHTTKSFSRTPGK", "assay": "Immunoglobulin specificity on SDS-PAGE: mouse IgG2a", "details": "37° C.", "experimental": "as §2, §1"}},
  "data": [
    {"molecule": "B1", "values": [
      {"measurement": "Activity on cow IgG", "setting": "cow IgG", "value": "only showed activity against horse and guinea pig IgG"},
      {"measurement": "Activity against denatured and reduced IgG", "setting": "[1]", "value": "not active"},
      {"measurement": "Number and position of hydrolytic sites", "setting": "[2]", "value": "only a single hydrolytic site was detected"},
      {"measurement": "Number and position of hydrolytic sites", "setting": "[2]; listed as IdeSork2.0", "value": "only observed at a single site in the hinge region"},
      {"measurement": "Immunoglobulin cleavage activity in the presence of human serum", "setting": "IgG in human serum", "value": "demonstrated immunoglobulin cleavage activity"},
      {"measurement": "Hydrolysis of IgG1", "setting": "IgG1", "value": "able to hydrolyze"},
      {"measurement": "Activity on horse IgG", "setting": "horse IgG", "value": "showed activity"},
      {"measurement": "Activity towards mouse IgG2b", "setting": "mouse IgG2b", "value": "not affected"},
      {"measurement": "Activity towards mouse IgG2a", "setting": "mouse IgG2a", "value": "active"},
      {"measurement": "Activity towards mouse IgG2a", "setting": "mouse IgG2a; listed as IdeSork2.0", "value": "could be hydrolyzed"}
    ]}
  ]
}
